Measured values reported in patent publication US20190211317A1, “PEPTIDES AND NANOPARTICLES FOR INTRACELLULAR DELIVERY OF GENOME-EDITING MOLECULES” (Aadigen, LLC, priority 2016, published 2019).
Non-standard residues stand in square brackets, D forms with d. No end group written: not given here. βAla = NCCC(=O)O

Target: CY5 fluorescently labeled CAS9 protein (S. pyogenes), Q99ZW2
Experiment: fluorescence titration of 5 nM CY5-CAS9 with increasing peptide, quadratic fit
Details: remark: other sources report otherwise

Sequence of CY5 fluorescently labeled CAS9 protein (S. pyogenes), Q99ZW2 (Q99ZW2 whole entry): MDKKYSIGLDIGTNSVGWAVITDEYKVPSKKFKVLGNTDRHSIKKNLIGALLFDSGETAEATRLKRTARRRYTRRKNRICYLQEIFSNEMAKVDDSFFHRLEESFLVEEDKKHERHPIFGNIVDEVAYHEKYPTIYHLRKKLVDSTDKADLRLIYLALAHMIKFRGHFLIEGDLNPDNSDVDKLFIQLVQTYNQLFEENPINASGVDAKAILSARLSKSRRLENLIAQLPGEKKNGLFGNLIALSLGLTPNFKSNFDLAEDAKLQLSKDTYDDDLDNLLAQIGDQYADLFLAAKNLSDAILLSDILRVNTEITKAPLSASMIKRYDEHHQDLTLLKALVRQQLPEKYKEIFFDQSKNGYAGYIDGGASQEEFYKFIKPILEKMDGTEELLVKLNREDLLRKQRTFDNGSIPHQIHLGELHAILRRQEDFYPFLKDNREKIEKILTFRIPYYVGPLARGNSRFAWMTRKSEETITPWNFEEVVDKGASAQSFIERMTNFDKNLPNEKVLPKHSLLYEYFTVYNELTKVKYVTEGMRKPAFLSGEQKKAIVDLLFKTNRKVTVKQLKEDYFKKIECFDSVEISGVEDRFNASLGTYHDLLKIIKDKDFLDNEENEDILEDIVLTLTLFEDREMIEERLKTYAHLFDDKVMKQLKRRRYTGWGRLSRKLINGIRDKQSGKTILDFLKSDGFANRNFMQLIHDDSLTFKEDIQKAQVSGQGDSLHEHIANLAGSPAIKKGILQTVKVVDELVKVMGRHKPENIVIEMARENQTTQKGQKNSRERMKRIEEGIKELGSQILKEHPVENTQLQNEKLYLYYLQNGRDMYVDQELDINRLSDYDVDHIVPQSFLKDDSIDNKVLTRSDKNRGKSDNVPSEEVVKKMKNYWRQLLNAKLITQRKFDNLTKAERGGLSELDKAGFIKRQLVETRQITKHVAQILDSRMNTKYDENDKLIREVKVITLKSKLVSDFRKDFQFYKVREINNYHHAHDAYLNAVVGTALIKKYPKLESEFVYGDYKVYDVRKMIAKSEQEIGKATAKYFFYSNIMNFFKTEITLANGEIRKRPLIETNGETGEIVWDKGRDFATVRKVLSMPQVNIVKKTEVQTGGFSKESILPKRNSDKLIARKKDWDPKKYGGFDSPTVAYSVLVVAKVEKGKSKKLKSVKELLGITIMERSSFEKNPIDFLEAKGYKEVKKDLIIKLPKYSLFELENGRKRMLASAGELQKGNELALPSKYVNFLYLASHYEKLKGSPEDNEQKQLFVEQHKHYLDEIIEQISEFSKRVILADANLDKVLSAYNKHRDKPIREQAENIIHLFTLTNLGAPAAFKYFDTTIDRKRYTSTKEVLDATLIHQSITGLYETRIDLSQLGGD

| Binder | Kd [nM] |
| --- | --- |
| [βAla]LWRALWRLWRSLWRLLWKA (also: acetate salt) [VEPEP-6] | > 100 |
| GLWRALWRLLRSLWRLLWKV (also: acetate salt) [CADY] | > 100 |
